Target: T1, rat/human corticotropin releasing factor (human and rat (same 41-residue sequence), C-terminal amide (NH2))
T1 peptide: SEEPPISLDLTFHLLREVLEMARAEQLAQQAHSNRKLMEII
Experiment: binding assay, method not described

Kd: 0.1 nM
B1: purified human CRF-BP (native 37 kD protein purified from human plasma) (other)
chain: YLELREAADYDPFLLFSANLKRELAGEQPYRRALRCLDMLSLQGQFTFTADRPQLHCAAFFISEPEEFITIHYDQVSIDCQGGDFLKVFDGWILKGEKFPSSQDHPLPSAERYIDFCESGLSRRSIRSSQNVAMIFFRVHEPGNGFTLTIKTDPNLFPCNVISQTPNGKFTLVVPHQHRNCSFSIIYPVVIKISDLTLGHVNGLQLKKSSAGCEGIGDFVELLGGTGLDPSKMTPLADLCYPFHGPAQMKVGCDNTVVRMVSSGKHVNRVTFEYRQLEPYELENPNGNSIGEFCLSGL
